From patent EP4631523A2

Key:
interleukin 6 (IL-6) [1] = biological target: interleukin 6 (IL-6) (UniProt P05231); assay: IL-6 binding ELISA; 5±3°C, 1 month
interleukin 6 (IL-6) [2] = biological target: interleukin 6 (IL-6) (UniProt P05231); assay: IL-6 binding ELISA; 5±3°C, 1 month; remark: listed apart in the source
interleukin 6 (IL-6) [3] = biological target: interleukin 6 (IL-6) (UniProt P05231); assay: IL-6 binding ELISA; 5±3°C, 1 month; remark: listed apart in the source
interleukin 6 (IL-6) [4] = biological target: interleukin 6 (IL-6) (UniProt P05231); assay: IL-6 binding ELISA; 25±2°C, 1 month
interleukin 6 (IL-6) [5] = biological target: interleukin 6 (IL-6) (UniProt P05231); assay: IL-6 binding ELISA; 25±2°C, 1 month; remark: listed apart in the source
interleukin 6 (IL-6) [6] = biological target: interleukin 6 (IL-6) (UniProt P05231); assay: IL-6 binding ELISA; 25±2°C, 1 month; remark: listed apart in the source
interleukin 6 (IL-6) [7] = biological target: interleukin 6 (IL-6) (UniProt P05231); assay: IL-6 binding ELISA; 25±2°C, 1 month; remark: listed apart in the source
interleukin 6 (IL-6) [8] = biological target: interleukin 6 (IL-6) (UniProt P05231); assay: IL-6 binding ELISA; 25±2°C, 1 month; remark: listed apart in the source
interleukin 6 (IL-6) [9] = biological target: interleukin 6 (IL-6) (UniProt P05231); assay: IL-6 binding ELISA; 40±2°C, 1 month
interleukin 6 (IL-6) [10] = biological target: interleukin 6 (IL-6) (UniProt P05231); assay: IL-6 binding ELISA; 40±2°C, 1 month; remark: listed apart in the source
interleukin 6 (IL-6) [11] = biological target: interleukin 6 (IL-6) (UniProt P05231); assay: IL-6 binding ELISA; 40±2°C, 1 month; remark: listed apart in the source
interleukin 6 (IL-6) [12] = biological target: interleukin 6 (IL-6) (UniProt P05231); assay: IL-6 binding ELISA; 40±2°C, 1 month; remark: listed apart in the source
interleukin 6 (IL-6) [13] = biological target: interleukin 6 (IL-6) (UniProt P05231); assay: IL-6 binding ELISA; 5±3°C, 0 months
interleukin 6 (IL-6) [14] = biological target: interleukin 6 (IL-6) (UniProt P05231); assay: IL-6 binding ELISA; 5±3°C, 3 months
interleukin 6 (IL-6) [15] = biological target: interleukin 6 (IL-6) (UniProt P05231); assay: IL-6 binding ELISA; 5±3°C, 6 months
interleukin 6 (IL-6) [16] = biological target: interleukin 6 (IL-6) (UniProt P05231); assay: IL-6 binding ELISA; 5±3°C, 0 months; remark: listed apart in the source
interleukin 6 (IL-6) [17] = biological target: interleukin 6 (IL-6) (UniProt P05231); assay: IL-6 binding ELISA; 5±3°C, 3 months; remark: listed apart in the source
interleukin 6 (IL-6) [18] = biological target: interleukin 6 (IL-6) (UniProt P05231); assay: IL-6 binding ELISA; 5±3°C, 6 months; remark: listed apart in the source
interleukin 6 (IL-6) [19] = biological target: interleukin 6 (IL-6) (UniProt P05231); assay: IL-6 binding ELISA; 5±3°C, 9 months
interleukin 6 (IL-6) [20] = biological target: interleukin 6 (IL-6) (UniProt P05231); assay: IL-6 binding ELISA; 5±3°C, 0 months; remark: listed apart in the source
interleukin 6 (IL-6) [21] = biological target: interleukin 6 (IL-6) (UniProt P05231); assay: IL-6 binding ELISA; 5±3°C, 3 months; remark: listed apart in the source
interleukin 6 (IL-6) [22] = biological target: interleukin 6 (IL-6) (UniProt P05231); assay: IL-6 binding ELISA; 5±3°C, 6 months; remark: listed apart in the source
interleukin 6 (IL-6) [23] = biological target: interleukin 6 (IL-6) (UniProt P05231); assay: IL-6 binding ELISA; 5±3°C, 9 months; remark: listed apart in the source
interleukin 6 (IL-6) [24] = biological target: interleukin 6 (IL-6) (UniProt P05231); assay: IL-6 binding ELISA; 5±3°C, 0 months; remark: listed apart in the source
interleukin 6 (IL-6) [25] = biological target: interleukin 6 (IL-6) (UniProt P05231); assay: IL-6 binding ELISA; 5±3°C, 3 months; remark: listed apart in the source
interleukin 6 (IL-6) [26] = biological target: interleukin 6 (IL-6) (UniProt P05231); assay: IL-6 binding ELISA; 5±3°C, 6 months; remark: listed apart in the source
interleukin 6 (IL-6) [27] = biological target: interleukin 6 (IL-6) (UniProt P05231); assay: IL-6 binding ELISA; 5±3°C, 9 months; remark: listed apart in the source
interleukin 6 (IL-6) [28] = biological target: interleukin 6 (IL-6) (UniProt P05231); assay: IL-6 binding ELISA; 5±3°C, 0 months; remark: listed apart in the source
interleukin 6 (IL-6) [29] = biological target: interleukin 6 (IL-6) (UniProt P05231); assay: IL-6 binding ELISA; 5±3°C, 3 months; remark: listed apart in the source
interleukin 6 (IL-6) [30] = biological target: interleukin 6 (IL-6) (UniProt P05231); assay: IL-6 binding ELISA; 25±2°C, 0 months
interleukin 6 (IL-6) [31] = biological target: interleukin 6 (IL-6) (UniProt P05231); assay: IL-6 binding ELISA; 25±2°C, 3 months

UniProt P05231, sequence (P05231 30-212 limits assumed): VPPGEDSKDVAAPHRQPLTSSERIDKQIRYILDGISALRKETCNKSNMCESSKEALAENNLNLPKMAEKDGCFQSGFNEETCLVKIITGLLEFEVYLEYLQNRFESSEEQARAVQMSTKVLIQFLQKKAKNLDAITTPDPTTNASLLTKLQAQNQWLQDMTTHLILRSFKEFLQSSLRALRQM

B1: COR-001 antibody (antibody, human IgG1, kappa, V domains shown)
VH: EVQLVESGGGLVQPGGSLRLSCAASGFTISSNYMIWVRQAPGKGLEWVSDLYYYAGDTYYADSVKGRFTMSRDISKNTVYLQMNSLRAEDTAVYYCARWADDHPPWIDLWGRGTLVTVSS
VL: DIQMTQSPSTLSASVGDRVTITCRASQGISSWLAWYQQKPGKAPKVLIYKASTLESGVPSRFSGSGSGTEFTLTISSLQPDDFATYYCQQSWLGGSFGQGTKLEIKR
Interleukin 6 (IL-6) [1]
  IL-6 binding ELISA (% of Reference Standard): 98%
Interleukin 6 (IL-6) [2]
  IL-6 binding ELISA (% of Reference Standard): 94%
Interleukin 6 (IL-6) [3]
  IL-6 binding ELISA (% of Reference Standard): 86%
Interleukin 6 (IL-6) [4]
  IL-6 binding ELISA (% of Reference Standard): 110%
Interleukin 6 (IL-6) [5]
  IL-6 binding ELISA (% of Reference Standard): 98%
Interleukin 6 (IL-6) [6]
  IL-6 binding ELISA (% of Reference Standard): 93%
Interleukin 6 (IL-6) [7]
  IL-6 binding ELISA (% of Reference Standard): 96%
Interleukin 6 (IL-6) [8]
  IL-6 binding ELISA (% of Reference Standard): 95%
Interleukin 6 (IL-6) [9]
  IL-6 binding ELISA (% of Reference Standard): 85%
Interleukin 6 (IL-6) [10]
  IL-6 binding ELISA (% of Reference Standard): 95%
Interleukin 6 (IL-6) [11]
  IL-6 binding ELISA (% of Reference Standard): 89%
Interleukin 6 (IL-6) [12]
  IL-6 binding ELISA (% of Reference Standard): 92%
Interleukin 6 (IL-6) [13]
  IL-6 binding ELISA (% of Reference Standard): 97%
Interleukin 6 (IL-6) [14]
  IL-6 binding ELISA (% of Reference Standard): 93%
Interleukin 6 (IL-6) [15]
  IL-6 binding ELISA (% of Reference Standard): 83%
Interleukin 6 (IL-6) [16]
  IL-6 binding ELISA (% of Reference Standard): 103%
Interleukin 6 (IL-6) [17]
  IL-6 binding ELISA (% of Reference Standard): 85%
Interleukin 6 (IL-6) [18]
  IL-6 binding ELISA (% of Reference Standard): 92%
Interleukin 6 (IL-6) [19]
  IL-6 binding ELISA (% of Reference Standard): 98%
Interleukin 6 (IL-6) [20]
  IL-6 binding ELISA (% of Reference Standard): 91%
Interleukin 6 (IL-6) [21]
  IL-6 binding ELISA (% of Reference Standard): 92%
Interleukin 6 (IL-6) [22]
  IL-6 binding ELISA (% of Reference Standard): 95%
Interleukin 6 (IL-6) [23]
  IL-6 binding ELISA (% of Reference Standard): 89%
Interleukin 6 (IL-6) [24]
  IL-6 binding ELISA (% of Reference Standard): 96%
Interleukin 6 (IL-6) [25]
  IL-6 binding ELISA (% of Reference Standard): 96%
Interleukin 6 (IL-6) [26]
  IL-6 binding ELISA (% of Reference Standard): 97%
Interleukin 6 (IL-6) [27]
  IL-6 binding ELISA (% of Reference Standard): 85%
Interleukin 6 (IL-6) [28]
  IL-6 binding ELISA (% of Reference Standard): 94%
Interleukin 6 (IL-6) [29]
  IL-6 binding ELISA (% of Reference Standard): 83%
Interleukin 6 (IL-6) [30]
  IL-6 binding ELISA (% of Reference Standard): 97%
Interleukin 6 (IL-6) [31]
  IL-6 binding ELISA (% of Reference Standard): 97%
